This is an account of results in PMC5799255, “Histone H5 is a potent Antimicrobial Agent and a template for novel Antimicrobial Peptides” (Scientific Reports, 2018).

Assay type in all cases: cell-based
Assay [1] deals with Bacillus cereus (ATCC 11778). Nature of the assay: Broth microdilution assay (MIC/MBC), planktonic bacteria. As to conditions: mean ± SD, n = 3. The method, then: (§1) Antimicrobial activity of histone H5 against a variety of Gram-positive and Gram-negative planktonic bacteria was evaluated using a broth microdilution assay. The average minimum inhibitory concentration (MIC) and minimum bactericidal concentration (MBC) values (mean ± SD, n = 3) for six Gram-positive and four Gram-negative bacterial species are shown in Table 2. […] E. faecalis was the least susceptible to histone H5 inhibition, requiring over 32 µg/mL for complete bacterial growth inhibition which was the highest histone H5 concentration tested.
(§2) The bacterial strains tested in this study were Gram-positive bacteria (Bacillus cereus (ATCC 11778), methicillin-sensitive Staphylococcus aureus (ATCC 6538), methicillin-resistant Staphylococcus aureus (ATCC 29247), Listeria monocytogenes (ATCC 19112), Enterococcus faecalis (clinical isolate) and vancomycin-resistant Enterococcus (ATCC 51299)) and Gram-negative bacteria Escherichia coli K12 (ATCC 29425), Escherichia coli (O157:H7), Pseudomonas aeruginosa (ATCC 15442) and Salmonella typhimurium (ATCC 1535)). Bacterial colonies from glycerol stocks were plated on LB agar plates (BHI agar plates for L. monocytogenes) and incubated overnight at 37 °C. Single colonies from these plates were grown in 3 mL of LB broth (BHI broth for L. monocytogenes) overnight at 37 °C and shaken at 250 rpm. […] The bacterial suspension was pelleted at 3,000 × g, 4 °C for 10 minutes and washed with PBS (twice), and then adjusted to 10^5–10^6 CFUs/mL in PBS.
(§3) Supplementary Information
(§4) Broth microdilution assay
(§5) The protocol for this step of the project was based on established methods22. Histone H5 or the peptides were dissolved in sterile water, pH 7.4, serially two-fold diluted and aliquoted in a 1:1 (v/v) ratio with bacteria. Kanamycin or ampicillin served as a positive control for inhibition, and sterile water (pH 7.4) as a negative control for inhibition. The tubes were then incubated for 3 hours at 37°C an d shaken at 200 rpm. Next, 100 µL of each tube and 100µL of LB broth (BHI broth for L. monocytogenes) was plated in wells of a 96-well microplate. The microplate was incubated in the EON microplate reader overnight at 206 oscillations/min and at 37°C. During this period, the EON microplate spectrophotometer and Gen5 data analysis software (BioTek, Winooski, VT, USA) were used to monitor the growth of bacteria by measuring the optical density at 600 nm every 30 minutes for 18 hours. The lowest protein concentration without visible bacterial growth was designated as the minimum inhibitory concentration (MIC). Bacteria (10 µL) from the wells at MIC, MIC x 2 and MIC x 3 concentrations of H5 were plated on LB agar (BHI agar for L. monocytogenes) and incubated at 37°C for 18 hours. The lowest concentration of histone H5 without a single colony was designated as the minimum bactericidal concentration (MBC). […]
On the technique in general: Broth dilution looks for growth in wells or tubes with falling amounts of substance.

In assay [2] the test system is Enterococcus faecalis (clinical isolate). The description is as above. As to conditions: mean ± SD, n = 3. The protocol: as §1, §2, §3, §4, §5
The test system of assay [3] is Salmonella typhimurium (ATCC 1535). The assay is described as above. The method, then:
as §1, §2, §3, §4, §5

Assay [4] relates to methicillin-resistant Staphylococcus aureus (ATCC 29247). The description is as above. The conditions noted are these: mean ± SD, n = 3. The method, then: as §1, §2, §3, §4, §5
For assay [5], the system named is methicillin-sensitive Staphylococcus aureus (ATCC 6538). The description is as above. As to conditions: mean ± SD, n = 3. The protocol:
as §1, §2, §3, §4, §5

In assay [6] the test system is vancomycin-resistant Enterococcus (ATCC 51299). Described as above. As to conditions: mean ± SD, n = 3. The method, then:
as §1, §2, §3, §4, §5

For the next assay, the system named is Listeria monocytogenes. Nature of the assay: Scanning electron microscopy of treated planktonic bacteria. As to conditions: 4 µg/mL, 3-hour incubation; three independent trials, each in duplicate. The method, then:
(§6) In order to study the effect of histone H5 on bacterial membranes, Gram-positive and Gram-negative planktonic bacteria incubated with histone H5 were visualized by scanning electron microscopy (SEM). Representative SEM images of Listeria monocytogenes and Pseudomonas aeruginosa untreated (H2O control) and histone H5-treated bacterial cells are shown in Fig. 3. […] Similar observations were made in each of three independent trials, each performed in duplicate.
(§7) The same protocols as described in the preparation of the bacterial suspension and the broth microdilution assay were followed to prepare the histone H5-treated bacteria and the untreated control cells for SEM. After a 3-hour incubation of the 1:1 (v/v) ratio of planktonic bacteria and histone H5 (or 1:1 (v/v) ratio of planktonic bacteria and sterile H2O for the untreated control cells), 100 µL of this solution was filtered directly through an Isopore™ polycarbonate membrane filter ([…], EMD Millipore Co Cork, IRL) which was placed in a Swinny Stainless Steel 13 mm Filter Holder (EMD Millipore, MA, USA) connected to vacuum suction. The filter was then removed and placed onto a Kimwipe™ (Kimberly-Clark™ Professional Kimtech Science™) in a glass cell culture dish. The filters were fixed with 5% glutaraldehyde in 0.1 M sodium cacodylate, pH 7.5 (VWR, Radnor, PA, USA) overnight at 4 °C. […]

A further assay concerns Pseudomonas aeruginosa. The assay is described as above. The conditions noted are these: 4 µg/mL, 3-hour incubation; three independent trials, each in duplicate. The protocol:
as §6, §7

The mark [7] stands for this setting: plated on LB agar, 37 °C 18 h, lowest concentration without a single colony.
Where [8] appears, read: broth microdilution, 3 h at 37 °C, then OD600 growth 18 h in LB broth.

By MIC is commonly meant the smallest concentration in the dilution series that meets the test's criterion for growth inhibition. A higher MIC goes with a less susceptible organism. For orientation: MBC means the lowest tested concentration that kills the bacteria rather than only halting them. A high value points to less potent killing.

B1: histone H5: erythrocyte-specific linker histone purified from chicken erythrocytes, 190 amino acids (protein, UniProt P02259 2-190, looked up)
Histone H5: TESLVLSPAPAKPKRVKASRRSASHPTYSEMIAAAIRAEKSRGGSSRQSIQKYIKSHYKVGHNADLQIKLSIRRLLAAGVLKQTKGVGASGSFRLAKSDKAKRSPGKKKKAVRRSTSPKKAARPRKARSPAKKPKATARKARKKSRASPKKAKKPKTVKAKSRKASKAKKVKRSKPRAKSGARKSPKKK
Consider B1, for which the MIC in assay [1] (broth microdilution, 3 h at 37 °C with bacteria 1:1 (v/v), then OD600 growth 18 h in LB broth, lowest concentration without visible growth) is 3.8 ± 1.7 µg/mL; in assay [2] (broth microdilution, 3 h at 37 °C, then OD600 growth 18 h in LB broth, highest concentration tested 32 µg/mL), greater than 32 µg/mL; in assay [3] (broth microdilution, 3 h at 37 °C, then OD600 growth 18 h in LB broth, mean ± SD, n = 3), 1.9 ± 1.8 µg/mL; in assay [3] (value in the figure, representative of three independent trials, each in triplicate) it was 4 µg/mL; in assay [4] (setting [8]) it was 2.4 ± 0.8 µg/mL; in assay [5] (setting [8]), 3.8 ± 0.4 µg/mL. For the same molecule, the MIC in assay [6] (setting [8]) is on record as 4 ± 1.2 µg/mL. Also, the MBC in assay [1] (wells at MIC, MIC x 2, MIC x 3 plated on LB agar, 37 °C 18 h, lowest concentration without a single colony) is 3.8 ± 1.7 µg/mL; in assay [2] (setting [7]), greater than 32 µg/mL; in assay [3] (plated on LB agar, 37 °C 18 h, lowest concentration without a single colony, mean ± SD, n = 3), 1.9 ± 1.8 µg/mL; in assay [4] (setting [7]) it was 2.7 ± 1.2 µg/mL; in assay [5] (setting [7]), 4 ± 0 µg/mL; in assay [6] (setting [7]) it was 4.4 ± 1.9 µg/mL. Also, the “bacterial cell morphology by SEM” value in the assay with Listeria monocytogenes is “Multiple indentations in the bacterial membrane, membrane wrinkling and pronounced deformations”; with Pseudomonas aeruginosa, “indentations in the bacterial membrane, small pore formation”.
